Data reported in publication PMC11999606, “Dynein light chains 1 and 2 are auxiliary proteins of pH-sensitive Kir4.1 channels” (The Journal of Biological Chemistry, 2025).

B1: full-length Kir4.1 protein with the ΔTQT deletion (natural protein, UniProt P78508 1-379, looked up)
chain: MTSVAKVYYSQTESRPLMGPGIRRRRVLTKDGRSNVRMEHIADKRFLYLKDLWTTFIDMQWRYKLLLFSATFAGTWFLFGVVWYLVAVAHGDLLELDPPANHTPCVVQVHTLTGAFLFSLESQTTIGYGFRYISEECPLAIVLLIAQLVLTTILEIFITGTFLAKIARPKKRAETIRFSQHAVVASHNGKPCLMIRVANMRKSLLIGCQVTGKLLQTHQTKEGENIRLNQVNVTFQVDTASDSPFLILPLTFYHVVDETSPLKDLPLRSGEGDFELVLILSGTVESTSATCQVRTSYLPEEILWGYEFTPAISLSASGKYIADFSLFDQVVKVASPSGLRDSTVRYGDPEKLKLEESLREQAEKEGSALSVRISNV
notes: Kir4.1 (KCNJ10), full length, with the three TQT residues (13-15) deleted; also called Kir4.1-ΔTQT; not shown: GFP, N-terminal, kept
B2: N-terminal FLAG-GFP-tagged full-length Kir4.1 (natural protein, UniProt P78508 1-379, looked up)
chain: MTSVAKVYYSQTTQTESRPLMGPGIRRRRVLTKDGRSNVRMEHIADKRFLYLKDLWTTFIDMQWRYKLLLFSATFAGTWFLFGVVWYLVAVAHGDLLELDPPANHTPCVVQVHTLTGAFLFSLESQTTIGYGFRYISEECPLAIVLLIAQLVLTTILEIFITGTFLAKIARPKKRAETIRFSQHAVVASHNGKPCLMIRVANMRKSLLIGCQVTGKLLQTHQTKEGENIRLNQVNVTFQVDTASDSPFLILPLTFYHVVDETSPLKDLPLRSGEGDFELVLILSGTVESTSATCQVRTSYLPEEILWGYEFTPAISLSASGKYIADFSLFDQVVKVASPSGLRDSTVRYGDPEKLKLEESLREQAEKEGSALSVRISNV
notes: Kir4.1 (KCNJ10), full length; also called F-GFP-Kir4.1; Kir4.1-WT; source: in detergent-solubilized membrane fraction, and purified; not shown: FLAG, N-terminal, kept; GFP, N-terminal, kept
B3: full-length Kir4.1, N-terminal tags cleaved off (natural protein, UniProt P78508 1-379, looked up)
chain: B2 chain
notes: Kir4.1 (KCNJ10) inwardly rectifying potassium channel, full length; Purified as a tetramer that carries copurified endogenous LC8; also called KCNJ10; Kir4.1 WT; source: purified (FLAG resin, eluted by HRV 3C cleavage, Superose 6 SEC); not shown: FLAG, N-terminal, cleaved; GFP, N-terminal, cleaved

Biological target: the molecule itself
Assay: SEC; purified Kir4.1 proteins on a Superose 6 column in glyco-diosgenin-containing buffer; pH 8.0 and pH 6.0 for the WT without tags; tetramer peak

Stoichiometry N, 4:
B1
B2
B3
